Experimental data from the supplement of paper PMC12042874.
± gives the uncertainty stated by the source.

Assay: amyloid nucleation score (Sup35N fusion, yeast selection) (log enrichment); library NNK1; higher = more nucleation; inactive = no reads after selection
In short: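 Peptides of 20 random codons, each fused to Sup35N, were expressed in psi-negative yeast. Cells were induced with 100 μM copper sulfate for 24 hours and grown 7 days at 30°C on medium lacking adenine and uracil, and plasmid inserts before and after selection were Illumina-sequenced. Nucleation scores are DiMSum log enrichments of output over input reads, centred on the mode score of non-aggregating sequences, and sequences under 100 input reads were excluded.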

| Substance | amyloid nucleation score |
| --- | --- |
| QAFISFVVSFRWHLTCRS | 1.18 ± 0.64 |
| QAHLNLVSRIIIMWS | 0.067 ± 0.79 |
| QAYLKVQVWLDRRNSI | inactive |
| QCSSANTSGIAETSTSLGRT | -0.244 ± 1.1 |
| QCVRLDVTT | -2.14 ± 2.1 |
| QDLTEWTYSLAPFMVFHTRP | -0.519 ± 1.2 |
| QDYGDDLRSGFRGYLSSPQG | 0.264 ± 0.32 |
| QFEFNFTKEDQYYEGFPVDW | -0.827 ± 1.7 |
| QFLRALGYAERRVGRRWLGW | -0.065 ± 0.71 |
| QFRCFHLL | -0.026 ± 1.2 |
| QGIEKGFDWKRIFCGELYVQ | -0.065 ± 0.4 |
| QGIVAVLED | inactive |
| QGKISGNRRSFFWW | -0.765 ± 0.44 |
| QGKKPGGFQNEDMVVVLKWR | -0.601 ± 0.46 |
| QGLAGHLSRRYFY | -1.96 ± 2.1 |
| QHTTVRFRTGDKRNQFLSSI | -0.843 ± 1.1 |
| QISRCILNNPRPCLSF | 1.01 ± 0.9 |
| QISRLKHYQTHVRMLLTLEG | -0.068 ± 0.42 |
| QIWTFRGRVLVGHTSREVVG | 0.122 ± 0.24 |
| QKPTMFGA | -0.338 ± 0.28 |
| QKRRKLARLASRYFPS | 0.325 ± 0.57 |
| QKWNMFVSSWVYDRRRTRGC | 0.301 ± 1.1 |
| QLLAVMWKGHHVYRELCGRL | -0.549 ± 0.46 |
| QLRNLFHFYTGITDSRFLLH | 1.93 ± 0.52 |
| QLSFCYHLCWVICEGMVLEV | -0.245 ± 0.42 |
| QLSTISFLQWSGSACSSTVH | -0.49 ± 0.74 |

| Substance | amyloid nucleation score |
| --- | --- |
| QMIMAMNSFLISYLNHMWPG | 2.13 ± 0.1 |
| QMLQVPYQSFVALGVAWVRT | 0.646 ± 0.66 |
| QNRSHKPEFGRMPASQPVTN | 0.447 ± 0.63 |
| QNTSEYSLRRERSR | -0.341 ± 0.5 |
| QNVRSLVHSYLKGTNSSLVG | -0.01 ± 0.74 |
| QPLSLCLVFDCTNISFSFQA | 8.594 ± 0.045 |
| QPPKHMTMYVYVDTHEAVLS | -0.133 ± 0.38 |
| QQGPFVCWIQR | -0.583 ± 1.1 |
| QQLALPPWSCLWQ | 0.095 ± 0.49 |
| QQSFVTSLVMYVDRYRFVQV | 0.809 ± 0.85 |
| QRGAVVQDLAM | 0.728 ± 0.71 |
| QRILTSYGRDMLTSLLRSMP | 1.01 ± 0.58 |
| QRLLTYPLLYVTSNVLRFYR | -0.001 ± 0.7 |
| QRSLMDAPMGKPRESNLLLV | 1.1 ± 0.57 |
| QRSNRGLPYKSRDGI | 0.153 ± 0.39 |
| QSFSKKEESYILYITRVHEP | 0.88 ± 0.69 |
| QSFSSSMHHDHDNWDQCCES | 0.522 ± 0.59 |
| QTDLLYSIYRSKDNSGLNLV | 0.75 ± 0.56 |
| QTHEYGLPRMIR | 0.884 ± 0.69 |
| QTLDRNNARSSDNGCSVGGA | -0.476 ± 1.9 |
| QTMVTLGSKLIYDESGIVMV | inactive |
| QVLSHSKHNIVLDYHLETCG | 1.84 ± 0.38 |
| QVRCAFVIRRSV | 0.143 ± 0.64 |
| QVRGTEVPVSIAVGLGTSRL | 1.05 ± 0.66 |
| QVRSSDSGLVNHFVNE | inactive |
| QVTRDGSYVGCGGGRRREMC | -0.359 ± 1.9 |

| Substance | amyloid nucleation score |
| --- | --- |
| QVVPC | -0.153 ± 0.66 |
| QWRSFYTAWVAYRDECPGGF | 2.44 ± 0.15 |
| QWVSMTEVYFVVNKRWMCSR | -1.39 ± 1.6 |
| QYFKNDVKYVPFG | -0.514 ± 1.1 |
| QYMLFMYLGVVLKCH | 0.644 ± 0.59 |
| QYRGDIYKISG | 1.29 ± 0.56 |
| QYRRVSILSSVLLYCPNYCQ | -1.38 ± 2.7 |
| QYSCGSYYLERSGNVSRRKS | -0.084 ± 1.6 |
| QYSCN | 1.72 ± 0.46 |
| QYSVHINNVTLRPKHRYVQ | -0.065 ± 0.29 |
| QYTYFMSGDWSNGRVSLVKK | 2.96 ± 0.099 |
| QYVPNETVDI | 1.4 ± 0.25 |
| RACLQFRQLVGDRLG | 1.52 ± 0.73 |
| RAGTFTVSTQGPS | 0.268 ± 0.28 |
| RALAVSRMRAYPSLRGEYLN | 0.076 ± 1.2 |
| RALRGSECGMNRRPLRGCVK | -0.167 ± 0.22 |
| RAMKWLYVSNNDNMRKHFFS | -0.712 ± 0.42 |
| RARQNAFREW | -0.301 ± 0.35 |
| RASILCA | 0.268 ± 0.66 |
| RASSFAEIPVVSCDGGLVKW | -0.129 ± 0.41 |
| RASTNLRSEIDVNNRGWLRW | 1.32 ± 0.42 |
| RCELMNIEFWVKHYGSSSGF | 1.64 ± 0.18 |
| RCGCERTYSFR | -0.027 ± 0.72 |
| RCGRAINGVQCVHWFVMSEG | 0.429 ± 0.58 |
| RCLIDCD | 0.157 ± 0.52 |
| RCSLPLWFQYYGAMTVHGTV | 0.61 ± 0.35 |

| Substance | amyloid nucleation score |
| --- | --- |
| RCVETSFTSGFIVGELLMRM | -0.84 ± 1.3 |
| RCVMFQVRHSNIGRKRDYGI | 0.389 ± 1.2 |
| RCWRSLPRLLRQFMDSSRTI | -0.27 ± 0.61 |
| RDFYNCS | 0.166 ± 0.26 |
| RDMVKLHVHTLHCNDDILGL | -0.896 ± 0.62 |
| RDNCSLNVYFK | 2.9 ± 0.14 |
| RDNKLSVAVVMQSYSVGESG | -0.034 ± 0.89 |
| RDPRAMQLKSRLGMWKNQWY | 0.91 ± 0.78 |
| RDSGLVGIPLTRTRIVKLST | -0.35 ± 0.56 |
| RDTTTT | 0.088 ± 0.33 |
| REDKYHIVVT | -0.275 ± 0.28 |
| REGWLITWRFNSW | inactive |
| RERIECDWTGLAFGDPKVSV | -0.646 ± 2.1 |
| RESGMTMHVVPQPLDTKTWC | 0.612 ± 0.72 |
| RETYLALRRYSDLTFINRTL | 1.21 ± 0.29 |
| REYETWLQSQRQNLSDLQK | 0.173 ± 0.33 |
| RFAAFIEQGFTTKK | 1.87 ± 0.14 |
| RFCRHEMVFVLDLNTYISVP | 0.887 ± 0.26 |
| RFCSKRMRVLIFFGLV | -0.165 ± 0.34 |
| RFDSFAMVYDNMWVRCLNVR | -0.303 ± 0.53 |
| RFDYGGIESGVAGCVRVRDY | 0.473 ± 0.67 |
| RFFPLVLGSLKYM | 0.827 ± 0.7 |
| RFFPWQPCNPHIMPLIFWMP | 0.692 ± 0.82 |
| RFGWISMYSCSRWHCMRNLY | 1.13 ± 0.19 |
| RFIVM | 0.304 ± 0.78 |
| RFLGIRTATMDMGSKERMWV | 0.601 ± 0.44 |

| Substance | amyloid nucleation score |
| --- | --- |
| RFLRAPGLCSVCSCE | -0.729 ± 0.85 |
| RFLVFC | inactive |
| RFNREFMSSSVLRSWNDGYG | -0.635 ± 0.62 |
| RFRKHRFVVLLCYWCLVFRE | 0.766 ± 1.2 |
| RFSSQTFY | -1.08 ± 2.4 |
| RFSWMQLWCECVLHY | -0.162 ± 0.3 |
| RFTLCCRMNGLVRYMSEN | inactive |
| RFWAACSFTDGR | 1.71 ± 0.13 |
| RFYTYQNDVAGSDDKFSMLC | -0.232 ± 0.24 |
| RGCRSCAFLIPGLVLCWWKE | 0.069 ± 0.62 |
| RGDLTPDARSYGPCSIHRWR | inactive |
| RGFLRRHGGKGFNVLQAVGR | 1.16 ± 0.72 |
| RGIAVWCTN | 0.286 ± 0.97 |
| RGLQNCASSTVRESGR | 0.009 ± 1 |
| RGNLGLDLWICSGYRMVMFQ | -0.784 ± 0.3 |
| RGRPLLGRMRFSSAGRAAFW | -0.418 ± 1.5 |
| RGSKVFSSDALVSRLARRVG | -0.462 ± 0.5 |
| RGSWIPVKQRLKVPQRDGLG | 0.207 ± 0.28 |
| RGVYNDSMERMPDNCSFYNK | -0.641 ± 1.5 |
| RGYLMHMTVAKILSVVKKRA | -2.16 ± 2.7 |
| RHGKASSSEWNAYRARDRGV | 0.761 ± 0.82 |
| RHIVFDRPSISFWLKSRKRR | 0.501 ± 0.64 |
